Measured values published in patent US20220135672A1 (Hoffmann-La Roche, published 2022).

Columns and labels:
[1] = molecular target: T1, rabbit-CD19-GPI anchor-FLAG-tag fusion polypeptide (on transfected CHO-S / HEK293F cells) (rabbit; human); assay: FACS, CHO-S transfected with CD19 expression plasmid, detection with anti-mIgG-APC
T1 sequence: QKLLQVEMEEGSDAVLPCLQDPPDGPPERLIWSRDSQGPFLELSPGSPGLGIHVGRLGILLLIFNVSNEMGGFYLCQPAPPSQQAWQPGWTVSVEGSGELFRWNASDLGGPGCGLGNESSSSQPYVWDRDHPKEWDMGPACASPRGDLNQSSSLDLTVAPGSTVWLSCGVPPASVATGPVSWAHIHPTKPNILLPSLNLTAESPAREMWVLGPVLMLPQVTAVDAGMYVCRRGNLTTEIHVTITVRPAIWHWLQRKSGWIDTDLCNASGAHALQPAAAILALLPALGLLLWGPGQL

[2] = molecular target: T2, rabbit CD19 (native, on the surface of rabbit B-cells) (rabbit); assay: FACS, rabbit PBMC
T2 construct: Natural CD19 on rabbit PBMC / B-cells; also called rbCD19; native rabbit CD19
T2 chain: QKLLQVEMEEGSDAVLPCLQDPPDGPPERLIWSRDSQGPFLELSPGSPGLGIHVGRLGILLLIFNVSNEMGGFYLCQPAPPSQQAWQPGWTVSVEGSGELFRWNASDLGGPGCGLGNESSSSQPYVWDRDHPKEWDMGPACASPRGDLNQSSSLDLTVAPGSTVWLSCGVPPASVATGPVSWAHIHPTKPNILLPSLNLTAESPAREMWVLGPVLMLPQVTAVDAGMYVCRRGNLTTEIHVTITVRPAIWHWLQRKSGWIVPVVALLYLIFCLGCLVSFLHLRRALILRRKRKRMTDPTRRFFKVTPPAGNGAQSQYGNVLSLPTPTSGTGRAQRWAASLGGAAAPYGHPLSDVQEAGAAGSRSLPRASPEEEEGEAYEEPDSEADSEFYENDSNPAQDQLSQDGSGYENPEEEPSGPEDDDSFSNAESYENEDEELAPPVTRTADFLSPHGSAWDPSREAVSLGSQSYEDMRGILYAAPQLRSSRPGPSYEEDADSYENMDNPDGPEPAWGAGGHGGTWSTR
Method: FACS analysis was applied for screening of hybridomas and to identify those hybridomas that secrete antibodies against rabbit CD19. All IgG-producing hybridomas were screened by FACS analysis of rabbit peripheral blood mononuclear cells (PBMCs) double stained with a rabbit IgM binding antibody for B-cell identification.
Freshly isolated rabbit (PBMCs) were incubated with FITC labeled anti-rabbit IgM antibody (Southern Biotech) and IgG-positive hybridoma supernatants on ice. After 45 min. incubation the PBMCs were washed once with ice cold PBS and resuspended in an PE-labeled anti-mouse IgG antibody (Invitrogen) binding the murine IgG of the hybridoma supernatant. After another 45 min. incubation on ice the cells were washed again once with ice cold PBS. Finally, the PBMCs were resuspended in ice cold PBS and immediately subjected to the FACS analyses. DAPI-HCl in a concentration of 2 μg/ml (Cayman) was added prior to the FACS analyses to discriminate between dead and live cells. A Becton Dickinson FACS Canto II device equipped with a computer and the FACSDiva software (BD Biosciences) were used for the analysis.

[3] = molecular target: T1, rabbit-CD19-GPI anchor-FLAG-tag fusion polypeptide (on transfected CHO-S / HEK293F cells) (rabbit; human); assay: FACS, HEK293F transfected with CD19 expression plasmid, detection with anti-mIgG-APC

B1: antibody 1H2 (mouse monoclonal anti-rabbit CD19 antibody) (antibody, mouse IgG2a, kappa, V domains shown)
VH: QVQLQQSGPEVVKPGASVRMSCKASGYIFTNHYIHWMKQRPGQGLEWVGCIYPGNVNSNYNEKFKGKATLTADKSSSTAYLQLSSLTSEDSAVYFCARGGYYGSSYSWFAYWGQGTLVIVSA
VL: DIVMTQSPATLSVTPGDRVSLSCRASQSISDFLHWYQQSSHESPRLLIKYASQSISGIPSRFSGSGSGSDFTLTINSVEPEDVGVYYCQNGHSFPYTFGGGTNLEIKR
notes: Mouse IgG from hybridoma; the chains are built here from variable domain plus constant region so that no leader is included; Tested as hybridoma supernatant, and later purified and labelled with Alexa 647 or biotin; also called clone 1H2; anti-CD19 A647
stained cells, absolute [n] [1]: 975 n | stained cells, relative to total number [%] [1]: 4.6% | Ratio Q2/IgM (%) [2]: 93.2% | stained cells, absolute [n] [3]: 7290 n | stained cells, relative to total number [%] [3]: 35.9%
